Data as given in patent US20190135918A1 (ICHNOS SCIENCES, published 2019).

Experiments:
[1] = target: T1, cynomolgus monkey CD3 epsilon 1-26_Fc fusion protein (cynomolgus monkey); assay: SPR, human IgG1 format, graded relative to chimeric SP34; one grade for human and cynomolgus protein
T1 construct: also called cynomolgus CD3 epsilon 1-26 Fc fusion protein

[2] = target: T2, human CD3 epsilon 1-26_Fc fusion protein (human); assay: as above
T2 construct: also called human CD3 1-26_Fc fusion protein

| Binder | binding result [1] | binding result [2] |
| --- | --- | --- |
| Chimeric SP34 (antibody, human IgG1, kappa, V domains shown, IgG1; also called chimeric SP34 antibody; SP34 chimera) VH: EVQLVESGGGLVQPKGSLKLSCAASGFTFNTYAMNWVRQAPGKGLEWVARIRSKYNNYATYYADSVKDRFTISRDDSQSILYLQMNNLKTEDTAMYYCVRHGNFGNSYVSWFAYWGQGTLVTVSA VL: QAVVTQESALTTSPGETVTLTCRSSTGAVTTSNYANWVQEKPDHLFTGLIGGTNKRAPGVPARFSGSLIGDKAALTITGAQTEDEAIYFCALWYSNLWVFGGGTKLTVLR | binds | binds |
| VH1/VL2 (antibody, human IgG1, kappa, IgG1; SP34 series; copies: 2 + 2) heavy: not shown light: EAVVTQSPATLSVSPGERATLSCRSSTGAVTTSNYANWVQEKPGQAFRGLIGGANKRAPGVPARFSGSLSGDEATLTISSLQSEDFAVYFCALWYSNLWVFGQGTKLEIKRTVAAPSVFIFPPSDEQLKSGTASVVCLLNNFYPREAKVQWKVDNALQSGNSQESVTEQDSKDSTYSLSSTLTLSKADYEKHKVYACEVTHQGLSSPVTKSFNRGEC | binds | binds |
| humanized SP34 prototype antibody VH1/VL1 (antibody, human IgG1, kappa, Human IgG1; Printed as 'variable heavy chain and light chain') VH: not shown VL: EAVVTQSPATLSVSPGERATLSCRSSTGAVTTSNYANWVQEKPGQAFRGLIGGANKRAPGVPARFSGSLSGDEATLTISSLQSEDFAVYFCQLWYSNLWVFGQGTKLEIKRTVAAPSVFIFPPSDEQLKSGTASVVCLLNNFYPREAKVQWKVDNALQSGNSQESVTEQDSKDSTYSLSSTLTLSKADYEKHKVYACEVTHQGLSSPVTKSFNRGEC | binds | binds |
| VH1/VL22 (antibody, human IgG1, kappa, V domains shown, IgG1; also called humanized SP34 VH1/VL22 antibody; copies: 2 + 2) VH: EVQLVESGGGLVQPGGSLRLSCAASGFTFNTYAMNWVRQAPGKGLEWVARIRSKYNNYATYYADSVKGRFTISRDDSKNTLYLQMNSLRAEDTAVYYCVRHGNFGNSYVSWFAYWGQGTTVTVSS VL: EIVVTQSPATLSVSPGERATLSCRSSTGAVTTSNYANWVQQKPGQAFRGLIGGANKRAPGVPARFSGSLSGDEATLTISSLQSEDFAVYYCALWYSNLWVFGQGTKLEIKR | binds | binds |
| VH1/VL11 (antibody, human IgG1, kappa, V domains shown, IgG1; also called humanized SP34 VH1/VL11 antibody; copies: 2 + 2) VH: EVQLVESGGGLVQPGGSLRLSCAASGFTFNTYAMNWVRQAPGKGLEWVARIRSKYNNYATYYADSVKGRFTISRDDSKNTLYLQMNSLRAEDTAVYYCVRHGNFGNSYVSWFAYWGQGTTVTVSS VL: EAVVTQSPATLSVSPGERATLSCRSSTGAVTTSNYANWVQEKPGQAFRGLIGGANKRAPGVPARFSGSGSGTEATLTISSLQSEDFAVYFCALWYSNLWVFGQGTKLEIKR | binds | binds |
| VH1/VL12 (antibody, human IgG1, kappa, IgG1; also called humanized SP34 VH1/VL12 antibody; copies: 2 + 2) heavy: not shown light: EAVVTQSPATLSVSPGERATLSCRSSTGAVTTSNYANWVQEKPGQAFRGLIGGANKRAPGVPARFSGSLSGTEATLTISSLQSEDFAVYFCALWYSNLWVFGQGTKLEIKRTVAAPSVFIFPPSDEQLKSGTASVVCLLNNFYPREAKVQWKVDNALQSGNSQESVTEQDSKDSTYSLSSTLTLSKADYEKHKVYACEVTHQGLSSPVTKSFNRGEC | binds | binds |
| VH1/VL19 (antibody, human IgG1, kappa, V domains shown, IgG1; also called humanized SP34 VH1/VL19 antibody; copies: 2 + 2) VH: EVQLVESGGGLVQPGGSLRLSCAASGFTFNTYAMNWVRQAPGKGLEWVARIRSKYNNYATYYADSVKGRFTISRDDSKNTLYLQMNSLRAEDTAVYYCVRHGNFGNSYVSWFAYWGQGTTVTVSS VL: EIVVTQSPATLSVSPGERATLSCRSSTGAVTTSNYANWVQEKPGQAFRGLIGGANKRAPGVPARFSGSLSGTEATLTISSLQSEDFAVYYCALWYSNLWVFGQGTKLEIKR | binds | binds |
| VH1/VL18 (antibody, human IgG1, kappa, IgG1; also called humanized SP34 VH1/VL18 antibody; copies: 2 + 2) heavy: not shown light: EIVVTQSPATLSVSPGERATLSCRSSTGAVTTSNYANWVQEKPGQAFRGLIGGANKRAPGVPARFSGSLSGDEATLTISSLQSEDFAVYFCALWYSNLWVFGGGTKLEIKRTVAAPSVFIFPPSDEQLKSGTASVVCLLNNFYPREAKVQWKVDNALQSGNSQESVTEQDSKDSTYSLSSTLTLSKADYEKHKVYACEVTHQGLSSPVTKSFNRGEC | binds | binds |
| VH1/VL8 (antibody, human IgG1, kappa, V domains shown, IgG1; also called humanized SP34 VH1/VL8 antibody; copies: 2 + 2) VH: EVQLVESGGGLVQPGGSLRLSCAASGFTFNTYAMNWVRQAPGKGLEWVARIRSKYNNYATYYADSVKGRFTISRDDSKNTLYLQMNSLRAEDTAVYYCVRHGNFGNSYVSWFAYWGQGTTVTVSS VL: EAVVTQSPATLSVSPGERATLSCRSSTGAVTTSNYANWVQEKPGQAFRGLIGGANKRAPGVPARFSGSGSGDEATLTISSLQSEDFAVYFCALWYSNLWVFGQGTKLEIKR | binds | binds |
| VH1/VL13 (antibody, human IgG1, kappa, IgG1; also called humanized SP34 VH1/VL13 antibody; copies: 2 + 2) heavy: not shown light: EAVVTQSPATLSVSPGERATLSCRASTGAVTTSNYANWVQEKPGQAFRGLIGGANKRAPGVPARFSGSLSGDEATLTISSLQSEDFAVYFCALWYSNLWVFGQGTKLEIKRTVAAPSVFIFPPSDEQLKSGTASVVCLLNNFYPREAKVQWKVDNALQSGNSQESVTEQDSKDSTYSLSSTLTLSKADYEKHKVYACEVTHQGLSSPVTKSFNRGEC | binds | binds |

Results, then the binder that gave them:

| binding result [1] | binding result [2] | Binder |
| --- | --- | --- |
| no binding (tested: not printed) | no binding (tested: not printed) | VH1/VL3 (antibody, IgG1; SP34 series; also called humanized SP34 VH1/VL3 antibody; copies: 2 + 2) heavy: not shown light: EAVVTQSATLSVSPGERATLSCRSSTGAVTTSNYANWVQEKPGQAFRGLIGGANKRAPGVPARFSGSLSGDEATLTISSLQSEDFAVYFCQLWYSNLWVFGQGTKLEIKRTVAAPSVFIFPPSDEQLKSGTASVVCLLNNFYPREAKVQWKVDNALQSGNSQESVTEQDSKDSTYSLSSTLTLSKADYEKHKVYACEVTHQGLSSPVTKSFNRGEC |
| no binding (tested: not printed) | no binding (tested: not printed) | VH1/VL14 (antibody, human IgG1, kappa, V domains shown, IgG1; also called humanized SP34 VH1/VL14 antibody; copies: 2 + 2) VH: EVQLVESGGGLVQPGGSLRLSCAASGFTFNTYAMNWVRQAPGKGLEWVARIRSKYNNYATYYADSVKGRFTISRDDSKNTLYLQMNSLRAEDTAVYYCVRHGNFGNSYVSWFAYWGQGTTVTVSS VL: EAVVTQSPATLSVSPGERATLSCRSSTGAVTTSNYANWVQEKPGQAFRLLIGGANKRAPGVPARFSGSLSGDEATLTISSLQSEDFAVYFCALWYSNLWVFGQGTKLEIKR |
| binds | binds | VH1/VL17 (antibody, human IgG1, kappa, IgG1; also called humanized SP34 VH1/VL17 antibody; copies: 2 + 2) heavy: not shown light: EIVVTQSPATLSVSPGERATLSCRASTGAVTTSNYANWVQEKPGQAFRGLIGGANKRAPGVPARFSGSLSGDEATLTISSLQSEDFAVYFCALWYSNLWVFGQGTKLEIKRTVAAPSVFIFPPSDEQLKSGTASVVCLLNNFYPREAKVQWKVDNALQSGNSQESVTEQDSKDSTYSLSSTLTLSKADYEKHKVYACEVTHQGLSSPVTKSFNRGEC |
| binds | binds | VH1/VL15 (antibody, human IgG1, kappa, V domains shown, IgG1; also called humanized SP34 VH1/VL15 antibody; copies: 2 + 2) VH: EVQLVESGGGLVQPGGSLRLSCAASGFTFNTYAMNWVRQAPGKGLEWVARIRSKYNNYATYYADSVKGRFTISRDDSKNTLYLQMNSLRAEDTAVYYCVRHGNFGNSYVSWFAYWGQGTTVTVSS VL: EAVVTQSPATLSVSPGERATLSCRSSTGAVTTSNYANWVQQKPGQAFRGLIGGANKRAPGVPARFSGSLSGDEATLTISSLQSEDFAVYFCALWYSNLWVFGQGTKLEIKR |
| binds | binds | VH1/VL16 (antibody, human IgG1, kappa, IgG1; also called humanized SP34 VH1/VL16 antibody; copies: 2 + 2) heavy: not shown light: EIVVTQSPATLSVSPGERATLSCRSSTGAVTTSNYANWVQEKPGQAFRGLIGGANKRAPGVPARFSGSLSGTEATLTISSLQSEDFAVYFCALWYSNLWVFGQGTKLEIKRTVAAPSVFIFPPSDEQLKSGTASVVCLLNNFYPREAKVQWKVDNALQSGNSQESVTEQDSKDSTYSLSSTLTLSKADYEKHKVYACEVTHQGLSSPVTKSFNRGEC |
| binds | binds | VH1/VL6 (antibody, human IgG1, kappa, V domains shown, IgG1; also called humanized SP34 VH1/VL6 antibody; copies: 2 + 2) VH: EVQLVESGGGLVQPGGSLRLSCAASGFTFNTYAMNWVRQAPGKGLEWVARIRSKYNNYATYYADSVKGRFTISRDDSKNTLYLQMNSLRAEDTAVYYCVRHGNFGNSYVSWFAYWGQGTTVTVSS VL: EAVVTQSPATLSVSPGERATLSCRSSTGAVTTSNYANWVQEKPGQAPRGLIGGANKRAPGVPARFSGSLSGDEATLTISSLQSEDFAVYFCALWYSNLWVFGQGTKLEIKR |
| binds | binds | VH1/VL5 (antibody, human IgG1, kappa, IgG1; also called humanized SP34 VH1/VL5 antibody; copies: 2 + 2) heavy: not shown light: EIVVTQSPATLSVSPGERATLSCRSSTGAVTTSNYANWVQEKPGQAFRGLIGGANKRAPGVPARFSGSLSGDEATLTISSLQSEDFAVYFCALWYSNLWVFGQGTKLEIKRTVAAPSVFIFPPSDEQLKSGTASVVCLLNNFYPREAKVQWKVDNALQSGNSQESVTEQDSKDSTYSLSSTLTLSKADYEKHKVYACEVTHQGLSSPVTKSFNRGEC |
| binds | binds | VH1/VL21 (antibody, human IgG1, kappa, IgG1 format of the variable domains of m38; also called humanized SP34 VH1/VL21 antibody (IgG1 format); H1L21 IgG1; copies: 2 + 2) heavy: not shown light: EIVVTQSPATLSVSPGERATLSCRSSTGAVTTSNYANWVQEKPGQAFRGLIGGANKRAPGVPARFSGSLSGDEATLTISSLQSEDFAVYYCALWYSNLWVFGQGTKLEIKRTVAAPSVFIFPPSDEQLKSGTASVVCLLNNFYPREAKVQWKVDNALQSGNSQESVTEQDSKDSTYSLSSTLTLSKADYEKHKVYACEVTHQGLSSPVTKSFNRGEC |
| binds | binds | VH1/VL10 (antibody, human IgG1, kappa, IgG1; also called humanized SP34 VH1/VL10 antibody; copies: 2 + 2) heavy: not shown light: EAVVTQSPATLSVSPGERATLSCRSSTGAVTTSNYANWVQEKPGQAFRGLIGGANKRAPGVPARFSGSLSGDEATLTISSLQSEDFAVYYCALWYSNLWVFGQGTKLEIKRTVAAPSVFIFPPSDEQLKSGTASVVCLLNNFYPREAKVQWKVDNALQSGNSQESVTEQDSKDSTYSLSSTLTLSKADYEKHKVYACEVTHQGLSSPVTKSFNRGEC |
